Experimental findings from the supplement of paper PMC9170038 are described below.

The series deals with MS2 coat protein. The experiment in a line: apparent KD of MS2 coat protein; designed switch direction (-1 OFF switch, 1 ON switch): -1; higher = weaker reporter binding. In a few lines:
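Three titration conditions were used: no input, 200 uM small-molecule ligand, and an oligonucleotide input. In each, SNAP-549-labelled MS2 coat protein was raised from 0.7 or 1.5 nM, doubling, to 3 µM over designed RNA switches transcribed on Illumina chips by stalled E. coli RNA polymerase. Curve fits of normalised cluster fluorescence gave values whose per-design median over clusters is the apparent KD.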

[1] abbreviates: Eterna round: R95, input ligand: microRNA oligo, concentration not stated.
Setting [2] is: Eterna round: R95, input ligand: FMN 200 uM.
Setting [3] is: Eterna round: R95, input ligand: none.
[4] abbreviates: input ligand: microRNA oligo, concentration not stated.

Take “AUAAUGUCAGGAUAUCAGUCGUACAGCCUCGGCUGUACGACUGAGAAGGGACAUGAGGAUCACCCAUGUGGUUA [E4/7-A2] (Eterna round: R97, puzzle: Exclusion 4)”: the “apparent KD of MS2 coat protein” value by setting is: (input ligand: FMN 200 uM) 34.2 nM; (input ligand: none) 562 nM.

Take “UGGUGUGAAGGAUAUACAUGAGGAUCACCCAUGUAUGAGGUGUGUGUUGAGGUGGAGGGUAGAAGGUCAGGUGG [JR_Exclusion3_Sub013] (puzzle: Exclusion 3)”: the “apparent KD of MS2 coat protein” value under setting [1] was 32.2 nM.

As to “UGUUGUUCAGGAUAUGAUGUAUAAUACAUGAGGAUCACCCAUGUAGAUCCUGAAUUAGCGUCAGAAGGGAAUGUUG [salish99_ex5_r4_104] (Eterna round: R97, puzzle: Exclusion 5)”, the “apparent KD of MS2 coat protein” value stood at 18 nM (input ligand: FMN 200 uM) and 21.1 nM (input ligand: none).

On to “AAUUAGCAAGCGAGAUCUCACAUGAGGAUCACCCAUGUGCUCGUCUUAUAAGGUACUGUGACGAUAGUCACGGUACC [Mat - Sensor, turn-off var - Eli Mod - D39] (Eterna round: R97, puzzle: Sensor, turn-off variant 1)”, for which the “apparent KD of MS2 coat protein” value reads like this: (input ligand: FMN 200 uM) 13.2 nM; (input ligand: none) 14.8 nM.

As for “GACGAGGGAGGAUAUGCACGAGGGAUAUCUGACAUGCCUAUACAUGAGGAUCACCCAUGUAGAAGGCCCAGAUA [Veorleerma] (puzzle: Exclusion 2)”, the “apparent KD of MS2 coat protein” value under setting [1] stood at 11.9 nM.

Take “GAUUGACAUGAGGAUCACCCAUGUGAGGAUAUCGGCCGGACCGUGUUGGCUUCCGUCGCGAGAAGGCGCAUAGG [Exclusion 1 V39] (puzzle: Exclusion 1)”: the “apparent KD of MS2 coat protein” value reads like this: under setting [2], 173 nM; under setting [1], 82.2 nM; under setting [3], 101 nM.

On to “GCACUGACAGGAUAUACAUGAGGAUCACCCAUGUGACCCUUAUAGUACUCGCGUACUAGUAGAAGGGUCUGUGC [Omei Ex3 Model Bachelor's Dilema v33] (Eterna round: R97, puzzle: Exclusion 3)”, for which the “apparent KD of MS2 coat protein” value runs as follows: (input ligand: FMN 200 uM) 324 nM; (input ligand: none) 59.4 nM.

Take “CUCCUACUUGUAGGAUAUCAGAGAUAACAUGAGGAUCACCCAUGUUGGGUCAUCAACUCAGUCGGUGAGAAGGACAGAAGUUGG [Eternabot solution 42] (Eterna round: R96, puzzle: Exclusion NG 2)”: the “apparent KD of MS2 coat protein” value is 96.1 nM (input ligand: FMN 200 uM), 68.6 nM under setting [4] and 63.2 nM (input ligand: none).

“UGGAGGUGAGGAUAUACAUGAGGAUCACCCAUGUGGUGAAGUAGAGAGUAGUGGAGUGGUAGAAGGCACGAGUA [Version #1] (Eterna round: R97, puzzle: Exclusion 3)”: the “apparent KD of MS2 coat protein” value is, setting by setting: (input ligand: FMN 200 uM) 702 nM; (input ligand: none) 352 nM.

As to “AGCUGUGGCCGAGGAUAUCUAUCCAAUAUAACCGAAAUAUAAUCGGACAUGAGGAUCACCCAUGUAGAGAAGGCGGUCUCAGCA [Eli eng2 - 093] (Eterna round: R96, puzzle: Exclusion NG 2)”, under setting [4], the “apparent KD of MS2 coat protein” value worked out at 15.3 nM.

As for “UCAAGCUUUAAGCGUGUGAACAUGAGGAUCACCCAUGUAUUUUAGGUAAUAAGUUCAAUUAUGUAUUCUCGUCUUAU [JR_SWV3TOV1_Sub095] (Eterna round: R96, puzzle: Sensor v3, turn-off variant 1)”, the “apparent KD of MS2 coat protein” value came to 61.5 nM (input ligand: FMN 200 uM), 45.4 nM under setting [4] and 65.4 nM (input ligand: none).

For the sequence “GAUAUAGAGCAGGAUAUCUUAGAUAUGUAAUAAAGAGAAGGGCUCACAUGAGGAUCACCCAUGUGGUCCUAGAU [JL Dibiri mod 13] (puzzle: Exclusion 6)”, the “apparent KD of MS2 coat protein” value under setting [1] is 20.7 nM.

Regarding “GAUUAUGCGAGCUUUAGGGACAUGAGGAUCACCCAUGUUCGUCUUAUUGAUCUGGGUACACUAACAUACCUAAAUCU [JMF 20] (puzzle: Sensor v3, turn-off variant 1)”, the “apparent KD of MS2 coat protein” value turned out to be 87.2 nM under setting [2], 99.7 nM under setting [1] and 94.3 nM under setting [3].

On to “UAUAUAUAGUAAGGAUAUGUAUUAAUUCUAUAAACAGAAGGUACUGACAUGAGGAUCACCCAUGUUUUAGUGUGGGCAUGUAGA [JMF's solution 82] (Eterna round: R96, puzzle: Exclusion NG 1)”, for which the “apparent KD of MS2 coat protein” value under setting [4] amounted to 41.3 nM.

In the case of “CCGGUUGGCGCAGGAUAUACAUGAGGAUCACCCAUGUUCAUGAGGAUCACCCAUGAGGUAAUGAUGUAGAAGGGUGGCCCGGCC [A second MS2 with the first and last base exchanged] (Eterna round: R96, puzzle: Exclusion NG 2)”, the “apparent KD of MS2 coat protein” value was 30.5 nM (input ligand: FMN 200 uM), 18.5 nM under setting [4] and 33.6 nM (input ligand: none).

As to “UUCAGUCAUCCUUAUUGUUACAUGAGGAUCACCCAUGUUUGUUUAAUUAAGUUUUGUAAGUUUGUUGUUCGUUUUAU [JR_STOV1_v2_Sub074] (Eterna round: R97, puzzle: Sensor, turn-off variant 1)”, the “apparent KD of MS2 coat protein” value (input ligand: FMN 200 uM) is 154 nM and the “apparent KD of MS2 coat protein” value (input ligand: none) stood at 173 nM.

Consider “GAUUAUGCGAGCUUUAGGGACAUGAGGAUCACCCAUGUUCGUCUUAUUAGUCUGGGUACACUGACAUACCUAAAUCU [JMF 71] (puzzle: Sensor v3, turn-off variant 1)”, for which the “apparent KD of MS2 coat protein” value reads like this: under setting [2], 24.6 nM; under setting [1], 35.2 nM; under setting [3], 25.4 nM.

Take “CUGGUCCGAGGAUAUAUUAUGUGAUACAUGAGGAUCACCCAUGUUAUAUAAUGGAUGUAAAUAGAAGGCGGACUAG [JL-ex5-3.16] (puzzle: Exclusion 5)”: the “apparent KD of MS2 coat protein” value reads like this: under setting [2], 60.3 nM; under setting [1], 43.2 nM; under setting [3], 44 nM.

For “GGAAAGCAAGGAUAUACAAGGAGACGAUGGAAAGUAGAGCGACAUGAGGAUCACCCAUGUAGAAGGUGCGAGAG [JR_Exclu2_Sub038] (puzzle: Exclusion 2)”, the “apparent KD of MS2 coat protein” value is 40.7 nM under setting [2], 39.1 nM under setting [1] and 34.8 nM under setting [3].

As for “GCCGCUGUAGGAUAUGCCAGGGUGGCAGCUUGAUGUGUGGCACAUGAGGAUCACCCAUGUAGAAGGACAGAAAG [Isvelera] (puzzle: Exclusion 2)”, the “apparent KD of MS2 coat protein” value under setting [1] turned out to be 17.1 nM.

“GAGUAGAGAGGAUAUGCAAUGAUCAUCGUACGAUGAGGCUGACAUGAGGAUCACCCAUGUAGAAGGCUCUGGUC [EX2 #20] (Eterna round: R97, puzzle: Exclusion 2)”: the “apparent KD of MS2 coat protein” value (input ligand: FMN 200 uM) was found to be 22.5 nM and the “apparent KD of MS2 coat protein” value (input ligand: none) was found to be 23.3 nM.

As for “AAGACACAUGAGGAUCACCCAUGUGAGGAUAUGCGAUGCUAAGCGUAAGCUUAGUAUCGCAGAAGGCACAAAGG [Salishxclusion 4 - Jieux - Exclusion 1] (Eterna round: R97, puzzle: Exclusion 1)”, the “apparent KD of MS2 coat protein” value was 76.9 nM (input ligand: FMN 200 uM) and 64 nM (input ligand: none).

“UAUAUAUAGUAAGGAUAUGUAUUUCUUUUAUAAACAGAAGGUACUGACAUGAGGAUCACCCAUGUUUUAGUGUGGGCAUGUAGA [JMF's solution 12] (Eterna round: R96, puzzle: Exclusion NG 1)”: the “apparent KD of MS2 coat protein” value under setting [4] is 63.1 nM.

In the case of “CCCUCACAUGAGGAUCACCCAUGUCAGGAUAUCUAGUCAGAUAGUGUAGCACUAAUGAAGAGAAGGGACGUAUA [Lezagees] (puzzle: Exclusion 1)”, the “apparent KD of MS2 coat protein” value under setting [1] was found to be 16.9 nM.

For “AACUAGUCAGGAUAUACGAACAUGUCAAAAAACAUAAAGGGACAUGAGGAUCACCCAUGUAGAAGGGACUAGCA [74%, Web mod - With 4 less G's] (Eterna round: R96, puzzle: Exclusion 2)”, the “apparent KD of MS2 coat protein” value under setting [4] is 150 nM.

For the sequence “UUAAUUCGGAUUCUUGAAAUACAUGAGGAUCACCCAUGUUCACAGGAUAUUGAUUAUGUUAGUAACAAGAAGGGUGUAACAUAU [JR_ExcNG3_Sub036] (Eterna round: R96, puzzle: Exclusion NG 3)”, the “apparent KD of MS2 coat protein” value (input ligand: FMN 200 uM) came out at 87.1 nM, the “apparent KD of MS2 coat protein” value under setting [4] stood at 31 nM and the “apparent KD of MS2 coat protein” value (input ligand: none) was found to be 28.7 nM.

Take “AGCUUUUUGUUUUUGGGUGACAUGAGGAUCACCCAUGUCUUAUGGGCCCAGUAGUAGUAAGAUAGAAGGGACCCACG [-20.8, -41.27, a 31%] (Eterna round: R97, puzzle: Sensor, turn-off variant 1)”: the “apparent KD of MS2 coat protein” value is, setting by setting: (input ligand: FMN 200 uM) 639 nM; (input ligand: none) 731 nM.

Take “GAGCUAUGAGGAUAUGCAUAUAUGCGGUUUCGUGUGGUACUACAUGAGGAUCACCCAUGUAGAAGGCGUGGCAG [Mat - Exclusion 2 - Mod of JL - D79] (puzzle: Exclusion 2)”: the “apparent KD of MS2 coat protein” value under setting [1] turned out to be 13.2 nM.

With “UUGACGGCAGGAUAUACAUGAGGAUCACCCAUGUAAAUUUUUCGUUUAACUUGAAUGUGUAGAAGGGCCAACUU [Ex3 #73] (Eterna round: R97, puzzle: Exclusion 3)”, the “apparent KD of MS2 coat protein” value was 18.6 nM (input ligand: FMN 200 uM) and 16.8 nM (input ligand: none).

Regarding “GAGGGACAUGAGGAUCACCCAUGUGAGGAUAUGUGAGAAGGAUUGGAGAGUGAGUGGGACAGAAGGCGCAAGGG [JR_Exclu1_Sub085] (puzzle: Exclusion 1)”, the “apparent KD of MS2 coat protein” value is, setting by setting: under setting [2], 95.4 nM; under setting [1], 59.9 nM; under setting [3], 78 nM.

In the case of “AAGAGUGCAGGAUAUACGUGAGAAAGGAGGAUGAGAGAAGGACAUGAGGAUCACCCAUGUAGAAGGGCAGAGAG [JR_Exclu2_Sub060] (puzzle: Exclusion 2)”, the “apparent KD of MS2 coat protein” value amounted to 29.8 nM under setting [2], 36.4 nM under setting [1] and 76.8 nM under setting [3].

For the sequence “UCAUGUUAGCAGGAUAUGCUAUUUAUUUUUUAUGCAGAAGGGCUUACAUGAGGAUCACCCAUGUGUUAGGUUUU [JR_E6_Sub073] (puzzle: Exclusion 6)”, under setting [1], the “apparent KD of MS2 coat protein” value was found to be 29.7 nM.
